Assay results as given in patent US8349579B2, “Galectin-3 cleavage as a marker for matrix metalloproteinase activity in cancer” (Wayne State University, priority 2007, dated 2013).

Tests used:
MMP-9 = MMP-9 (Homo sapiens, UniProt P14780); experiment: Cleavage of recombinant galectin-3 proteins by activated MMP-9 (Western blot); format: biochemical; conditions: purified active MMP-9, 60 min, 37° C.
MMP-2 = target: T1, MMP-2 (Homo sapiens, UniProt P08253); experiment: Cleavage of recombinant galectin-3 proteins by activated MMP-2 (Western blot); format: biochemical; conditions: purified active MMP-2, 15 min, 37° C.
T1 sequence (P08253 110-660): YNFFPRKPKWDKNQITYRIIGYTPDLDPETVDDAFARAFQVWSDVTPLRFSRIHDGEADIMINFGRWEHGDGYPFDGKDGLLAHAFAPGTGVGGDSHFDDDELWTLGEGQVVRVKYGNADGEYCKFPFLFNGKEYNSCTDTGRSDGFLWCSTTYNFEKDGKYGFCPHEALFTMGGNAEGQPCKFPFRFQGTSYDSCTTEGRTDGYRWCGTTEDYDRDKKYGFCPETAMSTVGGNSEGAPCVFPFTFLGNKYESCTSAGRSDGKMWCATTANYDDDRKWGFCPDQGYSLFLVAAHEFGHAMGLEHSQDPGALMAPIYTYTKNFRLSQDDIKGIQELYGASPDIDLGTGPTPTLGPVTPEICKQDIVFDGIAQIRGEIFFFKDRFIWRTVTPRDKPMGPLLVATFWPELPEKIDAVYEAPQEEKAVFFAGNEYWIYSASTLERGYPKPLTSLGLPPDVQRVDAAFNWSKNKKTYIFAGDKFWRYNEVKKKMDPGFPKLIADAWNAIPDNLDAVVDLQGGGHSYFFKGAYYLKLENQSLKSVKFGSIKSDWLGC

MDA-MB-435 tumors = conditions: mice bearing MDA-MB-435 tumors, injection; cited from earlier work
[1] = tested on: gelatinolytic activity (MMP) in MCF10 DCIS.com xenograft sections; conditions: DQ gelatin, incubated with EDTA (2 mM in method, 20 mM in FIG. 5 legend)
Experimental: In situ zymography was performed on the fresh frozen DCIS xenografts as described by Mook et. al. (29). In brief, 8 micron thick cryosections were air dried, rehydrated with PBS for 5 min and overlaid with a solution of 50 μg/ml fluorescein-labeled gelatin (DQ gelatin; Molecular Probes, Eugene, Oreg.), 1% w/v low melting temperature agarose (BioWhittaker Molecular Applications, Rockland, Me.) and 5 μg/ml DAPI (Molecular Probes) in PBS in the presence or absence of 2 mM EDTA and incubated on ice for 15 min followed by incubation in a humidified chamber at 37° C. for 2 hr. Protease catalyzed hydrolysis of the heavily labeled and totally quenched DQ Gelatin relieved the intra-molecular self quenching, yielding brightly fluorescent peptide, which was visualized by using imaging microscope.

Sequence of MMP-9 (P14780 107-707 limits assumed): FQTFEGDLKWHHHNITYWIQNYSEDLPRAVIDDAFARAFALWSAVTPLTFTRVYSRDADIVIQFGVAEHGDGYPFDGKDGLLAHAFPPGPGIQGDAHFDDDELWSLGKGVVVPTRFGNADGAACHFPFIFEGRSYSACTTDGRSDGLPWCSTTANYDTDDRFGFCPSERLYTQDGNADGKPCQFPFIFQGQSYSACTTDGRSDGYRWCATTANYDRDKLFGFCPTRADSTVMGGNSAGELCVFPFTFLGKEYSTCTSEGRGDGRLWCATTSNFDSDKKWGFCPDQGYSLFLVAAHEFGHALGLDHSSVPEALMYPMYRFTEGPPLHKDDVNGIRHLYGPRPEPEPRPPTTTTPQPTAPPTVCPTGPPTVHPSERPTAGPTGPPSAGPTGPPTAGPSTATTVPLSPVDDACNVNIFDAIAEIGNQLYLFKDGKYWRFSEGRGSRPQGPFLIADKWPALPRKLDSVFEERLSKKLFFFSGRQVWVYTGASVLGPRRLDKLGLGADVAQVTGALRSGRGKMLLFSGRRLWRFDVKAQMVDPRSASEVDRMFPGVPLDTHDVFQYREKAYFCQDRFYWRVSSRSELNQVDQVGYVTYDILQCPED

Row | Molecule | polypeptide produced upon incubation with MMP-9 (MMP-9) | polypeptide produced upon incubation with MMP-2 (MMP-2) | tumor growth and metastasis (MDA-MB-435 tumors) | gelatinolytic activity in the stroma [1]
1 | Wild type galectin-3: recombinant human wild type galectin-3, isolated from a GST fusion protein | ~22 kDa | ~22 kDa | – | –
2 | cleaved galectin-3 peptide containing 108-250 amino acids: cleaved galectin-3 peptide containing 108-250 amino acids, from the literature (ref. 37) | – | – | loss of tumor growth and metastasis | –
3 | A33G: recombinant galectin-3 mutant with A33G substitution | ~22 kDa | ~22 kDa | – | –
4 | O=C(O)CN(CCN(CC(=O)O)CC(=O)O)CC(=O)O [EDTA] | – | – | – | abrogated
